Data: the RNAGym collection of RNA variant scans (doi:10.1021/acssynbio.7b00057)

B1: Pistol ribozyme (parent)
chain: GGGUCGUUGUUCCAUAAUCGCGUGGAUAUGGCACGCAAGUUUCUACCGGGCACCGUAAAUGUCCGACUGGAGCCGUUCGGGCGGCUAUAAACAGACCUCAGGCCCGAAGCGUGGCGGCACCUGCCGCCGGUGGUAAAAAAGAUCGGAAGAGCACACGUCU

Variants of: B1
Experiment: aptazyme ON/OFF ratio, guanine; higher = stronger switching; co-transcriptional cleavage with and without guanine

| Variant | aptazyme ON/OFF ratio |
| --- | --- |
| GGGUCGAAAAGUCAUAAUCGCGUGGAUAUGGCACGCAAGUUUCUACCGGGCACCGUAAAUGUCCGACUGGAGCCGUUCGGGCGGCUAUAAACAGACCUCAGGCCCGAAGCGUGGCGGCACCUGCCGCCGGUGGUAAAAAAGAUCGGAAGAGCACACGUCU | 1.19 |
| GGGUCGGCACCCCAUAAUCGCGUGGAUAUGGCACGCAAGUUUCUACCGGGCACCGUAAAUGUCCGACUGGAGCCGUUCGGGCGGCUAUAAACAGACCUCAGGCCCGAAGCGUGGCGGCACCUGCCGCCGGUGGUAAAAAAGAUCGGAAGAGCACACGUCU | 1.16 |
| GGGUCGCACGCGAAUAAUCGCGUGGAUAUGGCACGCAAGUUUCUACCGGGCACCGUAAAUGUCCGACUGGAGCCGUUCGGGCGGCUAUAAACAGACCUCAGGCCCGAAGCGUGGCGGCACCUGCCGCCGGUGGUAAAAAAGAUCGGAAGAGCACACGUCU | 1.25 |
| GGGUCGGGUAUCUAUAAUCGCGUGGAUAUGGCACGCAAGUUUCUACCGGGCACCGUAAAUGUCCGACUGGAGCCGUUCGGGCGGCUAUAAACAGACCUCAGGCCCGAAGCGUGGCGGCACCUGCCGCCGGUGGUAAAAAAGAUCGGAAGAGCACACGUCU | 1.31 |
| GGGUCGGAAUUAUAUAAUCGCGUGGAUAUGGCACGCAAGUUUCUACCGGGCACCGUAAAUGUCCGACUGGAGCCGUUCGGGCGGCUAUAAACAGACCUCAGGCCCGAAGCGUGGCGGCACCUGCCGCCGGUGGUAAAAAAGAUCGGAAGAGCACACGUCU | 1.1 |
| GGGUCGAGUCACUAUAAUCGCGUGGAUAUGGCACGCAAGUUUCUACCGGGCACCGUAAAUGUCCGACUGGAGCCGUUCGGGCGGCUAUAAACAGACCUCAGGCCCGAAGCGUGGCGGCACCUGCCGCCGGUGGUAAAAAAGAUCGGAAGAGCACACGUCU | 1.33 |
| GGGUCGGAUCGACAUAAUCGCGUGGAUAUGGCACGCAAGUUUCUACCGGGCACCGUAAAUGUCCGACUGGAGCCGUUCGGGCGGCUAUAAACAGACCUCAGGCCCGAAGCGUGGCGGCACCUGCCGCCGGUGGUAAAAAAGAUCGGAAGAGCACACGUCU | 1.06 |
| GGGUCGCAUCACGAUAAUCGCGUGGAUAUGGCACGCAAGUUUCUACCGGGCACCGUAAAUGUCCGACUGGAGCCGUUCGGGCGGCUAUAAACAGACCUCAGGCCCGAAGCGUGGCGGCACCUGCCGCCGGUGGUAAAAAAGAUCGGAAGAGCACACGUCU | 1.07 |
| GGGUCGUGCUGGCAUAAUCGCGUGGAUAUGGCACGCAAGUUUCUACCGGGCACCGUAAAUGUCCGACUGGAGCCGUUCGGGCGGCUAUAAACAGACCUCAGGCCCGAAGCGUGGCGGCACCUGCCGCCGGUGGUAAAAAAGAUCGGAAGAGCACACGUCU | 1.15 |
| GGGUCGCGAGAUGAUAAUCGCGUGGAUAUGGCACGCAAGUUUCUACCGGGCACCGUAAAUGUCCGACUGGAGCCGUUCGGGCGGCUAUAAACAGACCUCAGGCCCGAAGCGUGGCGGCACCUGCCGCCGGUGGUAAAAAAGAUCGGAAGAGCACACGUCU | 1.36 |
| GGGUCGGGCCUCUAUAAUCGCGUGGAUAUGGCACGCAAGUUUCUACCGGGCACCGUAAAUGUCCGACUGGAGCCGUUCGGGCGGCUAUAAACAGACCUCAGGCCCGAAGCGUGGCGGCACCUGCCGCCGGUGGUAAAAAAGAUCGGAAGAGCACACGUCU | 1.59 |
| GGGUCGAUAGCUAAUAAUCGCGUGGAUAUGGCACGCAAGUUUCUACCGGGCACCGUAAAUGUCCGACUGGAGCCGUUCGGGCGGCUAUAAACAGACCUCAGGCCCGAAGCGUGGCGGCACCUGCCGCCGGUGGUAAAAAAGAUCGGAAGAGCACACGUCU | 1.2 |
| GGGUCGCGGACCUAUAAUCGCGUGGAUAUGGCACGCAAGUUUCUACCGGGCACCGUAAAUGUCCGACUGGAGCCGUUCGGGCGGCUAUAAACAGACCUCAGGCCCGAAGCGUGGCGGCACCUGCCGCCGGUGGUAAAAAAGAUCGGAAGAGCACACGUCU | 1.01 |
| GGGUCGUUUAGACAUAAUCGCGUGGAUAUGGCACGCAAGUUUCUACCGGGCACCGUAAAUGUCCGACUGGAGCCGUUCGGGCGGCUAUAAACAGACCUCAGGCCCGAAGCGUGGCGGCACCUGCCGCCGGUGGUAAAAAAGAUCGGAAGAGCACACGUCU | 1.79 |
| GGGUCGAGAUGGAAUAAUCGCGUGGAUAUGGCACGCAAGUUUCUACCGGGCACCGUAAAUGUCCGACUGGAGCCGUUCGGGCGGCUAUAAACAGACCUCAGGCCCGAAGCGUGGCGGCACCUGCCGCCGGUGGUAAAAAAGAUCGGAAGAGCACACGUCU | 1.1 |
| GGGUCGCUGACUUAUAAUCGCGUGGAUAUGGCACGCAAGUUUCUACCGGGCACCGUAAAUGUCCGACUGGAGCCGUUCGGGCGGCUAUAAACAGACCUCAGGCCCGAAGCGUGGCGGCACCUGCCGCCGGUGGUAAAAAAGAUCGGAAGAGCACACGUCU | 1.05 |
| GGGUCGGAGGCCAAUAAUCGCGUGGAUAUGGCACGCAAGUUUCUACCGGGCACCGUAAAUGUCCGACUGGAGCCGUUCGGGCGGCUAUAAACAGACCUCAGGCCCGAAGCGUGGCGGCACCUGCCGCCGGUGGUAAAAAAGAUCGGAAGAGCACACGUCU | 1.21 |
| GGGUCGCUGGACAAUAAUCGCGUGGAUAUGGCACGCAAGUUUCUACCGGGCACCGUAAAUGUCCGACUGGAGCCGUUCGGGCGGCUAUAAACAGACCUCAGGCCCGAAGCGUGGCGGCACCUGCCGCCGGUGGUAAAAAAGAUCGGAAGAGCACACGUCU | 1.1 |

| Variant | aptazyme ON/OFF ratio |
| --- | --- |
| GGGUCGAUGUGUCAUAAUCGCGUGGAUAUGGCACGCAAGUUUCUACCGGGCACCGUAAAUGUCCGACUGGAGCCGUUCGGGCGGCUAUAAACAGACCUCAGGCCCGAAGCGUGGCGGCACCUGCCGCCGGUGGUAAAAAAGAUCGGAAGAGCACACGUCU | 1.22 |
| GGGUCGAACGGUAAUAAUCGCGUGGAUAUGGCACGCAAGUUUCUACCGGGCACCGUAAAUGUCCGACUGGAGCCGUUCGGGCGGCUAUAAACAGACCUCAGGCCCGAAGCGUGGCGGCACCUGCCGCCGGUGGUAAAAAAGAUCGGAAGAGCACACGUCU | 1.17 |
| GGGUCGGCAAGUAAUAAUCGCGUGGAUAUGGCACGCAAGUUUCUACCGGGCACCGUAAAUGUCCGACUGGAGCCGUUCGGGCGGCUAUAAACAGACCUCAGGCCCGAAGCGUGGCGGCACCUGCCGCCGGUGGUAAAAAAGAUCGGAAGAGCACACGUCU | 1.16 |
| GGGUCGACUUUGCAUAAUCGCGUGGAUAUGGCACGCAAGUUUCUACCGGGCACCGUAAAUGUCCGACUGGAGCCGUUCGGGCGGCUAUAAACAGACCUCAGGCCCGAAGCGUGGCGGCACCUGCCGCCGGUGGUAAAAAAGAUCGGAAGAGCACACGUCU | 1.45 |
| GGGUCGGUGUCUAAUAAUCGCGUGGAUAUGGCACGCAAGUUUCUACCGGGCACCGUAAAUGUCCGACUGGAGCCGUUCGGGCGGCUAUAAACAGACCUCAGGCCCGAAGCGUGGCGGCACCUGCCGCCGGUGGUAAAAAAGAUCGGAAGAGCACACGUCU | 1.13 |
| GGGUCGCGCGCGGAUAAUCGCGUGGAUAUGGCACGCAAGUUUCUACCGGGCACCGUAAAUGUCCGACUGGAGCCGUUCGGGCGGCUAUAAACAGACCUCAGGCCCGAAGCGUGGCGGCACCUGCCGCCGGUGGUAAAAAAGAUCGGAAGAGCACACGUCU | 1.22 |
| GGGUCGGUUCCUAAUAAUCGCGUGGAUAUGGCACGCAAGUUUCUACCGGGCACCGUAAAUGUCCGACUGGAGCCGUUCGGGCGGCUAUAAACAGACCUCAGGCCCGAAGCGUGGCGGCACCUGCCGCCGGUGGUAAAAAAGAUCGGAAGAGCACACGUCU | 1.25 |
| GGGUCGGGGGUCCAUAAUCGCGUGGAUAUGGCACGCAAGUUUCUACCGGGCACCGUAAAUGUCCGACUGGAGCCGUUCGGGCGGCUAUAAACAGACCUCAGGCCCGAAGCGUGGCGGCACCUGCCGCCGGUGGUAAAAAAGAUCGGAAGAGCACACGUCU | 1.37 |
| GGGUCGCAAGACUAUAAUCGCGUGGAUAUGGCACGCAAGUUUCUACCGGGCACCGUAAAUGUCCGACUGGAGCCGUUCGGGCGGCUAUAAACAGACCUCAGGCCCGAAGCGUGGCGGCACCUGCCGCCGGUGGUAAAAAAGAUCGGAAGAGCACACGUCU | 1.03 |
| GGGUCGGCUUGUGAUAAUCGCGUGGAUAUGGCACGCAAGUUUCUACCGGGCACCGUAAAUGUCCGACUGGAGCCGUUCGGGCGGCUAUAAACAGACCUCAGGCCCGAAGCGUGGCGGCACCUGCCGCCGGUGGUAAAAAAGAUCGGAAGAGCACACGUCU | 1.28 |
| GGGUCGAGGAGUUAUAAUCGCGUGGAUAUGGCACGCAAGUUUCUACCGGGCACCGUAAAUGUCCGACUGGAGCCGUUCGGGCGGCUAUAAACAGACCUCAGGCCCGAAGCGUGGCGGCACCUGCCGCCGGUGGUAAAAAAGAUCGGAAGAGCACACGUCU | 1.32 |
| GGGUCGAAGGUUCAUAAUCGCGUGGAUAUGGCACGCAAGUUUCUACCGGGCACCGUAAAUGUCCGACUGGAGCCGUUCGGGCGGCUAUAAACAGACCUCAGGCCCGAAGCGUGGCGGCACCUGCCGCCGGUGGUAAAAAAGAUCGGAAGAGCACACGUCU | 1.35 |
| GGGUCGCAUGGAGAUAAUCGCGUGGAUAUGGCACGCAAGUUUCUACCGGGCACCGUAAAUGUCCGACUGGAGCCGUUCGGGCGGCUAUAAACAGACCUCAGGCCCGAAGCGUGGCGGCACCUGCCGCCGGUGGUAAAAAAGAUCGGAAGAGCACACGUCU | 1.11 |
| GGGUCGAUACCGCAUAAUCGCGUGGAUAUGGCACGCAAGUUUCUACCGGGCACCGUAAAUGUCCGACUGGAGCCGUUCGGGCGGCUAUAAACAGACCUCAGGCCCGAAGCGUGGCGGCACCUGCCGCCGGUGGUAAAAAAGAUCGGAAGAGCACACGUCU | 1.09 |
| GGGUCGAGAUUCGAUAAUCGCGUGGAUAUGGCACGCAAGUUUCUACCGGGCACCGUAAAUGUCCGACUGGAGCCGUUCGGGCGGCUAUAAACAGACCUCAGGCCCGAAGCGUGGCGGCACCUGCCGCCGGUGGUAAAAAAGAUCGGAAGAGCACACGUCU | 1.18 |
| GGGUCGGCGCAAGAUAAUCGCGUGGAUAUGGCACGCAAGUUUCUACCGGGCACCGUAAAUGUCCGACUGGAGCCGUUCGGGCGGCUAUAAACAGACCUCAGGCCCGAAGCGUGGCGGCACCUGCCGCCGGUGGUAAAAAAGAUCGGAAGAGCACACGUCU | 1.14 |
| GGGUCGGGUCUCAAUAAUCGCGUGGAUAUGGCACGCAAGUUUCUACCGGGCACCGUAAAUGUCCGACUGGAGCCGUUCGGGCGGCUAUAAACAGACCUCAGGCCCGAAGCGUGGCGGCACCUGCCGCCGGUGGUAAAAAAGAUCGGAAGAGCACACGUCU | 1.43 |
| GGGUCGAGGGCCCAUAAUCGCGUGGAUAUGGCACGCAAGUUUCUACCGGGCACCGUAAAUGUCCGACUGGAGCCGUUCGGGCGGCUAUAAACAGACCUCAGGCCCGAAGCGUGGCGGCACCUGCCGCCGGUGGUAAAAAAGAUCGGAAGAGCACACGUCU | 1.39 |
